Residue numbers refer to the chain shown, from its start. Names and notes keep the numbering of the source.

As a reminder, the Km is the concentration of substrate that gives half-maximal velocity. What is called kcat is the maximal rate divided by the concentration of active sites. Broadly, the kcat/Km is the second-order rate constant that governs catalysis at low substrate concentration.

The target in data set [1] is T1, oxalate decarboxylase (OxDC) (Bacillus subtilis, UniProt O34714, DEL162-162).
T1 construct: C-terminal His6 tag kept, expressed in E. coli BL21(DE3), Mn-containing (Co(II)-substituted for the crystal; model residues 6-382)
The data set is described as follows: X-ray crystal structure, […] Å. The format is binding. The following applies: Co(II)-substituted ΔE162 variant; oxalate end-on (monodentate) on Co(II) in N-terminal domain; cocrystallised, well pH 9.5, 17 °C.

Substrate in data set [2]: O=C(O)C(=O)O
The data set is described as follows: purified protein. The following applies: 25 °C.

[3] abbreviates: decarboxylase activity, Mn enzyme (1.4 Mn/monomer), 100 mM citrate pH 4.2, 300 uM o-phenylenediamine, pH 4.2.
Setting [4] is: oxidase activity, Mn enzyme (1.4 Mn/monomer), 50 mM succinate pH 4.0, O2 co-substrate, pH 4.0.
[5] abbreviates: DESN variant, decarboxylase activity, Mn enzyme (1.5 Mn/monomer), 100 mM citrate pH 4.2, 300 uM o-phenylenediamine, pH 4.2.
Where [6] appears, read: DESN variant, oxidase activity, Mn enzyme (1.5 Mn/monomer), 50 mM succinate pH 4.0, O2 co-substrate, pH 4.0.
Where [7] appears, read: DENS variant, decarboxylase activity, Mn enzyme (1.6 Mn/monomer), 100 mM citrate pH 4.2, 300 uM o-phenylenediamine, pH 4.2.
Setting [8] is: DDNS variant, decarboxylase activity, Mn enzyme (1.5 Mn/monomer), 100 mM citrate pH 4.2, 300 uM o-phenylenediamine, pH 4.2.
[9] abbreviates: DDSN variant, decarboxylase activity, Mn enzyme (1.5 Mn/monomer), 100 mM citrate pH 4.2, 300 uM o-phenylenediamine, pH 4.2.
[10] abbreviates: ΔE162 variant, decarboxylase activity, Mn enzyme (1.3 Mn/monomer), 100 mM citrate pH 4.2, 300 uM o-phenylenediamine, pH 4.2.
The mark [11] stands for this setting: ΔE162 variant, oxidase activity, Mn enzyme (1.3 Mn/monomer), 50 mM succinate pH 4.0, O2 co-substrate, pH 4.0.

For `O=C(O)C(=O)O` [oxalate], in data set [1], the “X-ray crystal structure, 2.6 Å” value was “we observed an oxalate molecule bound within the N-terminal domain”.

B1: oxalate decarboxylase (OxDC) (Bacillus subtilis subsp. subtilis str. 168) (protein)
chain: MKKQNDIPQPIRGDKGATVKIPRNIERDRQNPDMLVPPETDHGTVSNMKFSFSDTHNRLEKGGYAREVTVRELPISENLASVNMRLKPGAIRELHWHKEAEWAYMIYGSARVTIVDEKGRSFIDDVGEGDLWYFPSGLPHSIQALEEGAEFLLVFDDGSFSENSTFQLTDWLAHTPKEVIAANFGVTKEEISNLPGKEKYIFENQLPGSLKDDIVEGPNGEVPYPFTYRLLEQEPIESEGGKVYIADSTNFKVSKTIASALVTVEPGAMRELHWHPNTHEWQYYISGKARMTVFASDGHARTFNYQAGDVGYVPFAMGHYVENIGDEPLVFLEIFKDDHYADVSLNQWLAMLPETFVQAHLDLGKDFTDVLSKEKHPVVKKKCSK
As for B1, in data set [2] (setting [3]), the Km is 8 ± 1 mM, the kcat turned out to be 60 s⁻¹ and the kcat/Km came out at 5700 M⁻¹ s⁻¹. Further, in data set [2] (setting [4]), the Km was 5.0 ± 0.2 mM, the kcat is 0.13 s⁻¹ and the kcat/Km was 19 M⁻¹ s⁻¹.

B2: oxalate decarboxylase (OxDC) (Bacillus subtilis subsp. subtilis str. 168; N163S/S161D/S164N) (protein)
chain: B1 chain with S161D, N163S, S164N
Take B2: in data set [2] (setting [5]), the Km came to 6 ± 1 mM, the kcat was determined as 40 s⁻¹ and the kcat/Km was determined as 4400 M⁻¹ s⁻¹. In addition, in data set [2] (setting [6]), the Km is given as 11 ± 2 mM, the kcat was 0.1 s⁻¹ and the kcat/Km worked out at 11 M⁻¹ s⁻¹.

B3: oxalate decarboxylase (OxDC) (Bacillus subtilis subsp. subtilis str. 168; S161D) (protein)
chain: B1 chain with S161D
Turning to B3, in data set [2] (setting [7]), the Km is on record as 10 ± 1 mM, the kcat is 63 s⁻¹ and the kcat/Km worked out at 3900 M⁻¹ s⁻¹.

B4: oxalate decarboxylase (OxDC) (Bacillus subtilis subsp. subtilis str. 168; E162D/S161D) (protein)
chain: B1 chain with S161D, E162D
As for B4, in data set [2] (setting [8]), the Km was found to be 10 ± 2 mM, the kcat came out at 45 s⁻¹ and the kcat/Km worked out at 2900 M⁻¹ s⁻¹.

B5: oxalate decarboxylase (OxDC) (Bacillus subtilis subsp. subtilis str. 168; E162D/N163S/S161D/S164N) (protein)
chain: B1 chain with S161D, E162D, N163S, S164N
As for B5, in data set [2] (setting [9]), the Km is recorded as 3 ± 1 mM, the kcat was found to be 9 s⁻¹ and the kcat/Km was determined as 2400 M⁻¹ s⁻¹.

B6: oxalate decarboxylase (OxDC) (Bacillus subtilis subsp. subtilis str. 168; DEL162-162) (protein)
chain: MKKQNDIPQPIRGDKGATVKIPRNIERDRQNPDMLVPPETDHGTVSNMKFSFSDTHNRLEKGGYAREVTVRELPISENLASVNMRLKPGAIRELHWHKEAEWAYMIYGSARVTIVDEKGRSFIDDVGEGDLWYFPSGLPHSIQALEEGAEFLLVFDDGSFSNSTFQLTDWLAHTPKEVIAANFGVTKEEISNLPGKEKYIFENQLPGSLKDDIVEGPNGEVPYPFTYRLLEQEPIESEGGKVYIADSTNFKVSKTIASALVTVEPGAMRELHWHPNTHEWQYYISGKARMTVFASDGHARTFNYQAGDVGYVPFAMGHYVENIGDEPLVFLEIFKDDHYADVSLNQWLAMLPETFVQAHLDLGKDFTDVLSKEKHPVVKKKCSK
Take B6: in data set [2] (setting [10]), the Km came out at 1.6 ± 0.7 mM, the kcat was 0.01 s⁻¹ and the kcat/Km amounted to 5 M⁻¹ s⁻¹. In addition, in data set [2] (setting [11]), the Km is given as 3 ± 1 mM, the kcat was 0.05 s⁻¹ and the kcat/Km turned out to be 14 M⁻¹ s⁻¹.

The values are drawn from article PMC4854488 (Biochemistry, 2016).
